Assay results: PMC12985673

Molecular target: NRXβ1 ECD (amino acids 81 to 311), His-tagged, labelled with Alexa Fluor 488, P0DI97
Test: fluorescence polarisation
Details: chain shown with the change; Hill equation fit, shared slope n = 1.05 ± 0.05; NL2 concentration 0-8 µM; parent: 6.2 ± 0.4 µM

NRXβ1 ECD (amino acids 81 to 311), His-tagged, labelled with Alexa Fluor 488, P0DI97, sequence (P0DI97 other isoform, or with tags, fused parts or gaps): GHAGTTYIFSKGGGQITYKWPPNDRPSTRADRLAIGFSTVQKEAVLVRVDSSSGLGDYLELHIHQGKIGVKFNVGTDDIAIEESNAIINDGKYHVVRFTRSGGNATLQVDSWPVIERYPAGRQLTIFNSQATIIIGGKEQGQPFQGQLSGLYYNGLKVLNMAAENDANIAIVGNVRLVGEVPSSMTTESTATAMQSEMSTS

B1: full-length neuroligin 2 (NL2), mouse, without the splice insert at site A, Q69ZK9 H279Y; G282K (protein)
chain: MWLLALCLVGLAGAQRGGGGPGGGAPGGPGLGLGSLGEERFPVVNTAYGRVRGVRRELNNEILGPVVQFLGVPYATPPLGARRFQPPEAPASWPGVRNATTLPPACPQNLHGALPAIMLPVWFTDNLEAAATYVQNQSEDCLYLNLYVPTEDGPLTKKRDEATLNPPDTDIRDSGKKPVMLFLHGGSYMEGTGNMFDGSVLAAYGNVIVVTLNYRLGVLGFLSTGDQAAKGNYGLLDQIQALRWLSENIAHFGGDPERITIFGSGAGASCVNLLILSHYSEKLFQKAIAQSGTAISSWSVNYQPLKYTRLLAAKVGCDREDSTEAVECLRRKSSRELVDQDVQPARYHIAFGPVVDGDVVPDDPEILMQQGEFLNYDMLIGVNQGEGLKFVEDSAESEDGVSASAFDFTVSNFVDNLYGYPEGKDVLRETIKFMYTDWADRDNGEMRRKTLLALFTDHQWVAPAVATAKLHADYQSPVYFYTFYHHCQAEGRPEWADAAHGDELPYVFGVPMVGATDLFPCNFSKNDVMLSAVVMTYWTNFAKTGDPNQPVPQDTKFIHTKPNRFEEVVWSKFNSKEKQYLHIGLKPRVRDNYRANKVAFWLELVPHLHNLHTELFTTTTRLPPYATRWPPRTPGPGTSGTRRPPPPATLPPESDIDLGPRAYDRFPGDSRDYSTELSVTVAVGASLLFLNILAFAALYYKRDRRQELRCRRLSPPGGSGSGVPGGGPLLPTAGRELPPEEELVSLQLKRGGGVGADPAEALRPACPPDYTLALRRAPDDVPLLAPGALTLLPSGLGPPPPPPPPSLHPFGPFPPPPPTATSHNNTLPHPHSTTRV
  Kd: 320 nM
